From EP1034789A1

Tests used:
[1] = biological target: cellular receptor of fMLP (human); assay: 3H-fMLP bound to cells, Exp. 1, no inhibitor
[2] = biological target: cellular receptor of fMLP (human); assay: 3H-fMLP bound to cells, Exp. 1, with unlabeled fMLP
[3] = biological target: cellular receptors of MIP-1α on primary human monocytes and THP-1 cells (human); assay: 125I-MIP-1α bound to primary human monocytes, Exp. 1, 6500X excess unlabeled MIP-1α (background control)
[4] = biological target: cellular receptors of MIP-1α on primary human monocytes and THP-1 cells (human); assay: 125I-MIP-1α bound to human monocytic cells, Exp. 1, no inhibitor
[5] = biological target: cellular receptors of MIP-1α on primary human monocytes and THP-1 cells (human); assay: 125I-MIP-1α bound to THP-1 cells, Exp. 3, 6500X excess unlabeled MIP-1α (background control)
[6] = biological target: cellular receptors of MIP-1α on primary human monocytes and THP-1 cells (human); assay: 125I-MIP-1α bound to human monocytic cells, Exp. 1, 6500X molar excess unlabeled MIP-1α (background control)
[7] = biological target: cellular receptors of MIP-1α on primary human monocytes and THP-1 cells (human); assay: 125I-MIP-1α bound to primary human monocytes, Exp. 2, 6500X excess unlabeled MIP-1α (background control)
[8] = biological target: cellular receptors of MIP-1α on primary human monocytes and THP-1 cells (human); assay: 125I-MIP-1α bound to primary human monocytes, Exp. 1, no inhibitor
[9] = biological target: cellular receptors of MIP-1α on primary human monocytes and THP-1 cells (human); assay: 125I-MIP-1α bound to primary human monocytes, Exp. 2, no inhibitor
[10] = biological target: cellular receptors of MIP-1α on primary human monocytes and THP-1 cells (human); assay: 125I-MIP-1α bound to THP-1 cells, Exp. 3, no inhibitor

Surface Bound fMLP [1] [cpm] | Surface Bound fMLP [2] [cpm] | Substance | Surface Bound MIP-1α [3] [cpm] | Surface Bound MIP-1α [4] [cpm] | Surface Bound MIP-1α [5] [cpm] | Surface Bound MIP-1α [6] [cpm] | Surface Bound MIP-1α [7] [cpm] | Surface Bound MIP-1α [8] [cpm] | Surface Bound MIP-1α [9] [cpm] | Surface Bound MIP-1α [10] [cpm]
374 | 132 | fMLP (peptide) |  |  |  |  |  |  |  | 
 |  | human MIP-1α (from UniProt P10147 24-92) (ligand) | 470 | 12200 | 1040 | 444 | 410 | 4700 | 7710 | 9940
